Experimental data as given in PMC8514943, “^68Ga-Labeled GX1 Dimer: A Novel Probe for PET/Cerenkov Imaging Targeting Gastric Cancer” (Frontiers in Oncology, 2021).
Read-outs that look alike come from different tables or passages of the source. Positions of bridges follow the written chain, without caps; N, C: chain ends. Residues, ends and D or L forms follow the SMILES beside them. *: point of attachment. DOTA = O=C(O)CN1CCN(CC(=O)O)CCN(CC(=O)*)CCN(CC(=O)O)CC1

Experiments:
[1] = 37°C, determined at 0, 30, 60, 90 min, value holds for 90 min, radioactive TLC
Procedure: We used four kinds of solutions to observe the stability of the probes, namely, raw solution, normal saline, fresh mouse serum, and human serum. The specific methods were as follows: the probe and each solution were mixed according to a volume ratio of 1:100, and the original solution was kept as a control. The radiochemical purity of the solution was determined at 0, 30, 60, and 90 min. A curve was drawn to observe the stability of the probe in vitro and to speculate whether the probe would be removed from the standard in vivo.
Four kinds of solutions were used to observe the stability of the probe, namely, raw solution, normal saline, fresh mouse serum, and human serum. The probe was mixed with each solution at a volume ratio of 1:100, and the original solution was retained as a control. The radiochemical purity of the solution was determined after incubation for 0, 30, 60, and 90 min at 37°C.

BGC-823 tumors = assay: Biodistribution in tumor-bearing nude mice; format: in vivo, nude BALB/c mice
Procedure: All of the experiments were performed according to a protocol approved by the Fourth Military Medical University (FMMU) Animal Care and Use Committee. A total of 0.2 ml of cell suspension (BGC823, 2 × 10^6 cells) was implanted by subcutaneous injection into the right upper limb of athymic female nude BALB/c mice (age, 4–6 weeks; weight, 15–20 g). When the diameter of the tumor reached approximately 8 mm, it could be used for imaging. […] For the biodistribution of the probes, 3.7 × 10^6 Bq of probe was injected intravenously. […] The percentage of injected dose per gram (%ID/g) was calculated. […] The %ID/g was calculated as described previously.

## NCCCC[C@H](NC(=O)[C@H](CCC(=O)O)NC(=O)[C@H](CCCCN)NC(=O)[C@@H]1CSSC[C@H](NC(=O)CN2CCN(CC(=O)O)CCN(CC(=O)O)CCN(CC(=O)O)CC2)C(=O)NCC(=O)N[C@@H](CC(N)=O)C(=O)N[C@@H](CO)C(=O)N[C@@H](CC(N)=O)C(=O)N2CCC[C@H]2C(=O)N[C@@H](CCCCN)C(=O)N[C@@H](CO)C(=O)N1)C(=O)N[C@H]1CSSC[C@@H](C(=O)O)NC(=O)[C@H](CO)NC(=O)[C@H](CCCCN)NC(=O)[C@@H]2CCCN2C(=O)[C@H](CC(N)=O)NC(=O)[C@H](CO)NC(=O)[C@H](CC(N)=O)NC(=O)CNC1=O [^68Ga-DOTA-KEK-(GX1)2, metal not drawn] ({DOTA}-CGNSNPKSCKEKCGNSNPKSC-OH; disulfide 1-9, 13-21)
[1]; fresh mouse serum, probe:solution 1:100 v/v
  labeling rate (radiochemical purity) remaining: above 95%
[1]; human serum, probe:solution 1:100 v/v
  labeling rate (radiochemical purity) remaining: above 95%
[1]; normal saline, probe:solution 1:100 v/v
  labeling rate (radiochemical purity) remaining: above 95%
[1]; raw (original) solution kept as control
  labeling rate (radiochemical purity) remaining: above 95%
BGC-823 tumors; 3.7 × 10^6 Bq i.v., 30, 60, 90 min, while kidney and liver radioactivity reduced rapidly
  radiation of the tumor over time: decreased relatively slowly
BGC-823 tumors; 3.7 × 10^6 Bq i.v., 60 min, except for the liver and kidney
  %ID/g of the tumor compared with organs: higher than that of other normal organs
BGC-823 tumors; 3.7 × 10^6 Bq i.v., 60 min postinjection
  uptake by tumors compared between probes (%ID/g): much higher than that of ^68Ga-DOTA-GX1
BGC-823 tumors; tumor/nontumor ratios, 30, 60, 90 min after injection
  T/NT ratios: increased over time
